From article PMC9017247 come the findings set out here.

The experiment has as its target SARS-CoV-2 viral particles (spike protein as shown on the whole virus) (SARS-CoV-2).

With “recombinant griffithsin lectin protein (rGRFT) (from UniProt P84801 1-121) (natural protein)”, the IC50 of rGRFT on SARS-CoV-2 (Ank2, Wuhan like) infection of Vero E6 cells, cytopathic effect reading; rGRFT from 6 uM to 15.4 pM mixed with infectious particles amounted to 33.2 nM.
